Experimental data reported in publication PMC12416549 (2024).
Changes are numbered by the printed parent chain. Names and notes keep the numbering of the source.

T1: TNFR1 (Homo sapiens, UniProt P19438)
T1 chain: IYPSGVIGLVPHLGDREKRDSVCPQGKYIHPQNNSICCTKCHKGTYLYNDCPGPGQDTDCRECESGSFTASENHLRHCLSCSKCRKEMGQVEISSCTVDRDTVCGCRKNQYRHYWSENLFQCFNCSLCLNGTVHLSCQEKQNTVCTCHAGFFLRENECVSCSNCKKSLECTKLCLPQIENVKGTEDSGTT

B1: D59A (designed binder)
chain: MTLQELLREEALRRAEAEAFRYALELLAEKFPEQKEYLLDLAEEIESQIRSLSGVDVEAVRKFLDKEWAWVKELLAEHPAELAEVEAARAARLAELRAEVEAKVAA
B2: E99D (designed binder)
chain: B1 chain with A59D, E99D
B3: R50A (designed binder)
chain: B1 chain with R50A, A59D
B4: K66Q (designed binder)
chain: B1 chain with A59D, K66Q
B5: F20V (designed binder)
chain: B1 chain with F20V, A59D
B6: E18G (designed binder)
chain: B1 chain with E18G, A59D
B7: R14L (designed binder)
chain: B1 chain with R14L, A59D
B8: L7W (designed binder)
chain: B1 chain with L7W, A59D
B9: F31N (designed binder)
chain: B1 chain with F31N, A59D
B10: L6M (designed binder)
chain: B1 chain with L6M, A59D
B11: E16V (designed binder)
chain: B1 chain with E16V, A59D
B12: L6I (designed binder)
chain: B1 chain with L6I, A59D
B13: Y37C (designed binder)
chain: B1 chain with Y37C, A59D
B14: L6G (designed binder)
chain: B1 chain with L6G, A59D
B15: L82K (designed binder)
chain: B1 chain with A59D, L82K
B16: R92G (designed binder)
chain: B1 chain with A59D, R92G
B17: W70A (designed binder)
chain: B1 chain with A59D, W70A
B18: A23G (designed binder)
chain: B1 chain with A23G, A59D
B19: E73A (designed binder)
chain: B1 chain with A59D, E73A
B20: L27M (designed binder)
chain: B1 chain with L27M, A59D
B21: A11P (designed binder)
chain: B1 chain with A11P, A59D
B22: A88G (designed binder)
chain: B1 chain with A59D, A88G
B23: R92P (designed binder)
chain: B1 chain with A59D, R92P
B24: E84S (designed binder)
chain: B1 chain with A59D, E84S
B25: F20W (designed binder)
chain: B1 chain with F20W, A59D
B26: K103M (designed binder)
chain: B1 chain with A59D, K103M
B27: A42V (designed binder)
chain: B1 chain with A42V, A59D
B28: E46L (designed binder)
chain: B1 chain with E46L, A59D
B29: A102F (designed binder)
chain: B1 chain with A59D, A102F
B30: A83H (designed binder)
chain: B1 chain with A59D, A83H
B31: A28R (designed binder)
chain: B1 chain with A28R, A59D
B32: L41T (designed binder)
chain: B1 chain with L41T, A59D
B33: A91C (designed binder)
chain: B1 chain with A59D, A91C
B34: V71F (designed binder)
chain: B1 chain with A59D, V71F
B35: E86S (designed binder)
chain: B1 chain with A59D, E86S
B36: V60L (designed binder)
chain: B1 chain with A59D, V60L
B37: E16C (designed binder)
chain: B1 chain with E16C, A59D
B38: R13D (designed binder)
chain: B1 chain with R13D, A59D
B39: L26Y (designed binder)
chain: B1 chain with L26Y, A59D
B40: A105Y (designed binder)
chain: B1 chain with A59D, A105Y
B41: L7E (designed binder)
chain: B1 chain with L7E, A59D
B42: A106S (designed binder)
chain: B1 chain with A59D, A106S
B43: L27G (designed binder)
chain: B1 chain with L27G, A59D
B44: V71Y (designed binder)
chain: B1 chain with A59D, V71Y
B45: A102I (designed binder)
chain: B1 chain with A59D, A102I
B46: P79I (designed binder)
chain: B1 chain with A59D, P79I
B47: H78E (designed binder)
chain: B1 chain with A59D, H78E
B48: A11V (designed binder)
chain: B1 chain with A11V, A59D
B49: K72N (designed binder)
chain: B1 chain with A59D, K72N
B50: A11S (designed binder)
chain: B1 chain with A11S, A59D
B51: R92S (designed binder)
chain: B1 chain with A59D, R92S
B52: V104F (designed binder)
chain: B1 chain with A59D, V104F
B53: A76Q (designed binder)
chain: B1 chain with A59D, A76Q
B54: K35A (designed binder)
chain: B1 chain with K35A, A59D
B55: W68H (designed binder)
chain: B1 chain with A59D, W68H

Target: T1, TNFR1
Assay: yeast display SC50

Binder	apparent Kd (screen) [nM]
B1	0.539
B2	0.539
B3	0.539
B4	0.653
B5	0.49
B6	0.49
B7	0.956
B8	24.4
B9	0.593
B10	1.86
B11	0.446
B12	0.539
B13	3
B14	22.2
B15	2.48
B16	0.593
B17	22.2
B18	0.49
B19	0.593
B20	0.593
B21	2.25
B22	0.79
B23	2.25
B24	0.653
B25	4.83
B26	0.718
B27	0.718
B28	0.539

Binder	apparent Kd (screen) [nM]
B29	0.653
B30	0.539
B31	12.5
B32	0.539
B33	0.593
B34	1.69
B35	0.869
B36	0.593
B37	0.593
B38	1.69
B39	0.593
B40	0.79
B41	15.2
B42	0.653
B43	0.539
B44	2.48
B45	0.956
B46	0.653
B47	0.653
B48	0.49
B49	0.539
B50	0.956
B51	0.653
B52	0.539
B53	0.446
B54	1.27
B55	2.73
